Results on one sequence are retold here after the Immune Epitope Database (IEDB).

Some results are limits rather than exact numbers.

Targets include HLA-A*01:01; HLA-B*51:01; HLA-B*27:05; HLA-B*57:01; HLA-B*39:01; HLA-A*69:01; HLA-A*11:01; HLA-A*02:06; HLA-B*48:01.
Common to all, as to test: IEDB peptide-MHC binding, purified MHC/competitive/fluorescence; filed as Kd, often an IC50 or EC50 that approximates it; ≥ and ≤ were set here for values at or beyond the usual limits of such assays
What all share (conditions): source organism: Salmonella enterica subsp. enterica serovar Typhi

In the case of SVIDHIHYM, the Kd with HLA-A*01:01 was not below 20 µM; with HLA-B*51:01, not below 20 µM; with HLA-B*27:05, not below 20 µM; with HLA-B*57:01, 1.53 µM; in the assay with HLA-B*39:01, 2.8 µM; in the assay with HLA-A*69:01 it was 0.0006 µM. The results for the Kd in the assay with HLA-A*11:01, with HLA-A*02:06 and in the assay with HLA-B*48:01 were 0.0717 µM, not above 0.001 µM and not below 20 µM, respectively.

As usually defined, the Kd is a measure of binding affinity in units of concentration. Low values mean higher affinity, high ones lower affinity.
